Target: cdc42_human CDC42 (UniProt P60953)
Chain of UniProt P60953 (P60953 whole entry, looked up): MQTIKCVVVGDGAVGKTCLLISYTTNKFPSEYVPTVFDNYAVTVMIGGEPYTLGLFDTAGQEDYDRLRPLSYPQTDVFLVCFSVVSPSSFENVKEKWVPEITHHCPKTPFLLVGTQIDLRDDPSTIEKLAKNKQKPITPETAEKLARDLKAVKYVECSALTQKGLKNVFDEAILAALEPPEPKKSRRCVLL

Substance: Phospholipid-transporting ATPase ABCA1 (Homo sapiens), O95477 K939M
- effect of a mutation on the interaction: disrupting interaction strength

Source: IntAct's records for PubMed 16443932
